Changes are numbered by the printed parent chain. Numbers in names are those of the source.
T1: cyclo(CGHHQKG) (SEQ ID NO: 12) conjugated to BSA (also: conjugated to BSA)
T1 construct: Synthetic cyclic peptide (CPC Scientific) holding HHQK of A-beta; also called Cyclic Peptide; cyclopeptide
T1 peptide: cyclo(CGHHQKG)

B1: 301-11 (antibody, V domains shown)
VH: EVQLVESGGGLVKPGGSLKLSCAASGFTFSDYYMYWVRQTPEKRLEWVATISDGGSYTSYPDSVKGRFTISRDNAKNNLYLQMSSLRSEDTAMYYCARDYYGSSSYTSGFAYWGQGTLVTVSA
VL: DIVMSQSPSSLAVSTGEKVTMSCKSSQSLLNSRTRKNYLAWYQQKPGQSPKLLIYWASTRESGVPDRFTGSGSGTDFTLTISSVQAEDLAVYYCKQSYNLYTFGGGTKLEIK
notes: Mouse monoclonal from hybridoma, IgG3 / kappa, raised against cyclo(CGHHQKG)-KLH
B2: Recombinant 301-17 IgG2a (antibody)
heavy: QVQLQQPGAELVKPGASVKMSCKASGYSFTSYWINWVKQRPGQGLEWIGDVHPGRGVSTYNAKFKSKATLTLDTSSSTAYMQLSSLTSEDSAVYYCSRSHGNTYWFFDVWGAGTTVTVSSAKTTAPSVYPLAPVCGDTTGSSVTLGCLVKGYFPEPVTLTWNSGSLSSGVHTFPAVLQSDLYTLSSSVTVTSSTWPSQSITCNVAHPASSTKVDKKIEPRGPTIKPCPPCKCPAPNLLGGPSVFIFPPKIKDVLMISLSPIVTCVVVDVSEDDPDVQISWFVNNVEVHTAQTQTHREDYNSTLRVVSALPIQHQDWMSGKEFKCKVNNKDLPAPIERTISKPKGSVRAPQVYVLPPPEEEMTKKQVTLTCMVTDFMPEDIYVEWTNNGKTELNYKNTEPVLDSDGSYFMYSKLRVEKKNWVERNSYSCSVVHEGLHNHHTTKSFSRTPGK
light: DVLMTQTPLSLPVSLGDQASISCRSSQSIVHSNGNTYLEWYLQKPGQSPKLLIYKVSNRFSGVPDRFSGSGSGTDFTLKISRVEAEDLGVYYCFQGSHVPFTFGSGTKLEIKRADAAPTVSIFPPSSEQLTSGGASVVCFLNNFYPKDINVKWKIDGSERQNGVLNSWTDQDSKDSTYSMSSTLTLTKDEYERHNSYTCEATHKTSTSPIVKSFNRNEC
B3: 301-17 (hybridoma-purified 301-17 IgG3) (antibody, V domains shown)
VH: QVQLQQPGAELVKPGASVKMSCKASGYSFTSYWINWVKQRPGQGLEWIGDVHPGRGVSTYNAKFKSKATLTLDTSSSTAYMQLSSLTSEDSAVYYCSRSHGNTYWFFDVWGAGTTVTVSSATTTAPS
VL: DVLMTQTPLSLPVSLGDQASISCRSSQSIVHSNGNTYLEWYLQKPGQSPKLLIYKVSNRFSGVPDRFSGSGSGTDFTLKISRVEAEDLGVYYCFQGSHVPFTFGSGTKLEIKRADA
notes: Mouse monoclonal from hybridoma, IgG3 / kappa; also called mu301-17
B4: 301-17 chimeric antibody (VH0 Vk0, human IgG4) (antibody, V domains shown)
VH: QVQLQQPGAELVKPGASVKMSCKASGYSFTSYWINWVKQRPGQGLEWIGDVHPGRGVSTYNAKFKSKATLTLDTSSSTAYMQLSSLTSEDSAVYYCSRSHGNTYWFFDVWGAGTTVTVSS
VL: DVLMTQTPLSLPVSLGDQASISCRSSQSIVHSNGNTYLEWYLQKPGQSPKLLIYKVSNRFSGVPDRFSGSGSGTDFTLKISRVEAEDLGVYYCFQGSHVPFTFGSGTKLEIK
notes: expressed in CHO cells; not expressly tied to the chimeric one; also called V0H0 and V0k0
B5: Humanized antibody of 301-17 (VH2 Vk5), IgG4 isotype (S241P hinge mutation) (antibody, V domains shown)
VH: B4 VH with Q5V, P7S, L11V, V12K, K67R, S76I, Q82E, T87R, S91T, A112Q
VL: DVLMTQSPLSLPVTLGQPASISCRSSQSIVHSNGNTYLEWYQQRPGQSPRLLIYKVSNRFSGVPDRFSGSGSGTDFTLKISRVEAEDVGVYYCFQGSHVPFTFGQGTKLEIKR
notes: also called hu301-17

Assays:
A-beta42 Monomer = target: T2, A-beta42 Monomer (human); test: SPR; purified antibody immobilized, A-beta preparation flowed over
T2 construct: Recombinant A-beta42 peptide (California Peptide), HFIP-treated, in DMSO then water, used at once; also called Ab42 Monomer; A-beta 1-42 monomer

[1] = target: T3, A-beta42 Oligomer (synthetic, prepared in F12 medium) (human); test: as above
T3 construct: Non-covalent oligomer of recombinant A-beta42 (California Peptide), 100 µM in F12 medium, 24 h to 7 days at 4 °C; also called Ab42 Oligomer; A-beta 1-42 oligomers

[2] = target: T1, cyclo(CGHHQKG) (SEQ ID NO: 12) …; test: ProteOn biosensor; antibody amine-coupled to GLH chip, Cyclo-BSA dilutions 9 nM to 111 pM
Procedure: Cyclo-BSA 3-fold dilutions were used from 9 nM to 111 pM. Assay buffer was PBS-E+0.05% Tween+10 mg/ml BSA.

[3] = target: T4, commercially-prepared stable A-beta42 Oligomers (SynAging SAS) (human); test: ProteOn biosensor; antibody captured or amine-coupled on GLM chip, AbO dilutions 1 uM to 12.3 nM
T4 construct: Bought oligomer preparation; also called AbO (SynAging); SynAging AbO
Procedure: AbO 3 fold-dilutions were used: 1 uM, 0.33 uM, 0.11 uM, 37 nM, 12.3 nM. Assay buffer was PBS-E+Tween 20+2 mg/ml BSA.

[4] = target: T1, cyclo(CGHHQKG) (SEQ ID NO: 12) …; test: single cycle Biacore analysis
Procedure: The fully humanized antibodies were prepared using Composite Human Antibody™ technology. The humanized variable region genes were cloned into vectors encoding a human IgG4 (S241P hinge variant) heavy chain constant domain and a human kappa light chain constant domain. Chimeric and humanized antibodies were transiently expressed in CHO cells and Protein A purified and tested.
Binding was determined using single cycle Biacore analysis. Antibodies were analysed in two separate experiments.

[5] = target: T1, cyclo(CGHHQKG) (SEQ ID NO: 12) …; test: SPR; immobilized antibody pre-exposed to cyclic peptide

T4 sequence (peptide, as listed by the source): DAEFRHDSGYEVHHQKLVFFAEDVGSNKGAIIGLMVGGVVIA
T2 sequence (peptide, as listed by the source): as above
T3 sequence (peptide, as listed by the source): as above

| Binder | binding response (RU) (A-beta42 Monomer) | binding response (RU) [1] | Kd [3] | Kd [4] | further results |
| --- | --- | --- | --- | --- | --- |
| B1 | -14.1 RU | -2.8 RU | – | – | – |
| B2 | – | – | 16.2 to 19.5 nM | – | Kd [2]: ~0.017 nM |
| B3 | -27.1 RU | 148 RU | ~26.9 nM | 0.4 nM | – |
| B4 | – | – | – | ~0.02 nM | – |
| B5 | – | – | – | – | binding result [5]: binds |

— patent US20200181247A1 (published 2020)
